# Experiment: yeast display, Sf9 membrane polyspecificity reagent, FACS + sequencing; frameworks hold sequencing errors
# Procedure, shortened: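 Synthetic nanobody libraries on Saccharomyces cerevisiae BJ5465 were galactose-induced for 36–48 hours, stained 1 hour at 4 °C with 10% biotinylated, detergent-solubilized Sf9 membrane reagent and enriched on streptavidin microbeads. FACS then separated cells into low and high (top ~1%) gates by anti-HA (expression) and streptavidin (reagent binding) fluorescence. Genes were colony-PCR amplified, MiSeq 2 × 250 sequenced and CDR-length filtered. A clone's polyreactivity label is that of its gate of origin.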
row,Sequence,polyreactivity (PSR sort gate)
1,QVQLVESGGGLVQAGGSLRLSCAASGSTFKRYVMGWYRQAPGKERELVAAISSRGGSTYYADSVKGRFTISRDNAKNTVYLQMNSLKPEDTAVYYCASANVRAEDYWGQGTQVTVSS,high polyreactivity
2,QVQLVESGGGLVQAGGSLRLSCAASGFTFYYYAMGWYRQAPGKERELVAAISISGASTYYADSVKGRFTISRDNAKNTVYLQMNSLKPEETAVDYCAKRTKGYTYHHEYGYWGQGTQVTVSS,low polyreactivity
3,QVQLVESGGGLVQAGGSLRLSCAASGNIFADYVMGWYRQAPGKERELVAAIDKSGGRTYYADSVKGRFTISRDNEKNNVYLQMNILKPEDTAVYYCSAYDRYRRMDYWGQGTQVTVSS,high polyreactivity
4,QVQLVESGGGLVQAGGSLRLSCAASGRTFTRNAMGWYRQAPGKERELVAAISYSGGSTYYADSVKGRFTISRDNAKNTVYLQMNSLKPEDTAVYYCNAATSRRSIRYDYWGQGTQVTVSS,high polyreactivity
5,QVQLVESGGGLVQAGGSLRLSCAASGTIFVAYDMGWYRQAPGKERELVAAINFDGTSTYYADSVKGRFTISRDNAKNTVYLQMNSLKPEDTAVYYCNKRVSPTYKGQYDYWGQGTQVTVSS,low polyreactivity
6,QVQLVESGGGLVQAGGSLRLTCAASGFTFAGYAMGWYRQGPGKERELVAVITSSDSTYYADSVKGRFTISRDNAKNTVYLQMNSLKPEDTAVYYCNAADERSQGWVGYDHWGQCTQVTVSS,low polyreactivity
7,QVQLVESGGGLVQAGGTLRLSCAASGSIFPDNTMGWYRQAPGKERELVAAIDGRGVTTYYADSVKGRFTISRDNAKNTVYLHMNSLKPEDTAVYYCAAQPWLRYYYWGQGTQVTVSS,low polyreactivity
8,QVQLVESGGGLVQAGGSLRISCAASGSTFPYNAMGWYRQAPGKERELVATIDRGSTTNYADSVKGRFTISRDNAKNTVYLQMNSLKPEDTAVYYCAADANGYYNYDYWGQGTQVTVSS,low polyreactivity
9,QVHLVDSGGGLVQAGGSLRLSSADSGSTFAANAIGWYRQAPGKERELVAAITSSGGSTYYADSVKGRFTISRDNATNTVYLQKNSLKPEDTAVYYCNKDMERYVRIYDSWGQGSQVTVSS,low polyreactivity
10,QVQLVESGGGLVQAGGSLRLSCDASGSIFIYYAMGWYRQAPGKERELVAAIDYSGDSTYYADSVKGRFTISRDNAKNTVYGQMNSLKPEDTAVYYCARRGFLVHWPRPSYDYWGQGTQVTVSS,low polyreactivity
11,QVQLVESGGGLVQAGGSLRLSCAASGRIFLKYAMGWYRHAPGKERELVAAISLSTGSTYYADSVKGRFTISRDNAKNTVYLQMNSLKAEDTAVYYCAATRKYRYVYWGQGTQGTVSS,high polyreactivity
12,QVQLVESGGGLVQAGGSLRLSCAASGYIFDAYAMGWYRQAPGKERELVAAIDIGGSTYYADSVKGRFTISRDNAKNTVYLQMNSLKPEDTAVYYCAEWFYFDQWDYAREYWGQGTQVTVSS,low polyreactivity
13,QVQLVESGGGLVQAGGSLRISCAASGRTGKNAMVWYRQARGNERELVAASRYNGGSTYYADSVKGRFTISRDNANNTVYLQKNIMKPEYTAVYYCAAAFRRHNGSAFNYWGHGTQVTVSS,high polyreactivity
14,QVQLVESGGGLVQAGGSLRLSCAASGRIFFRNAMGWYRQAPGKERELVAAITWNGGSTYYADSVKGRFTISRDIAKNTVYLQMNSLKPEDTAVYYCNKAGVSYRSQYYYWGQGTQVTVSS,high polyreactivity
15,QVQLVESGGGLVQAGGSLRLSCAASGITFDYYAMGWYRQAPGKERELVAAISWGGGSTYYADSVKGRFTISRDNAKNTVYLQMNSLKQEDTAVYYCAAVIVYSPSSYVRPGDYWGQGTQVTVSS,low polyreactivity
16,QVQLVESGGGLVQAGGSLRLSCAASGSTFYLYAMGWYRQAPGKERELVADISWDGDSTYYADSVKGRFTISRDNAKNTVYLQMNSLKPEDTAVYYCAADYFYYYEQYLWYTYDYWGQGTQVTVSS,high polyreactivity
17,QVQLVESGGGLVQAGGSLRLSCAASGSTFVGYAMGWYRQAPGKERELVAAISRSGGRTYYADSVKGRFTISRDNAKNTVYLQMNSLKPEETAVYYCYPYYIASTFDYWGQGTQVTVSS,high polyreactivity
18,QVQLVESGGGLVQAGGSLRLSCAASGRTFGFNAMGWYRQAPGKDRELVASITRGGRTDYADSVKGRFTISRDNAKNTVYLQMNSLKPEDTAVYYCAAQSGWHHTGGMYYWGQGTQVTVSS,high polyreactivity
19,QVQLVESGGGLVQAGGSLRLICAASGSIFYVYAMGWYRQSPGKERELDAAINTSGGSTFYADSVKGRFTISRDNAKNTVYLQMNSLKPEDTAVYYCAAERYRYRSTDTMGYWGQGTQVTVSS,low polyreactivity
20,QVQLVESGGGLVQAGGSLRLSCAASGFTFDQYAMGWYRQAPGKEREFVAAINQSTGSTYYADSVKGRFTISRDNAKNTVYLQMISLKPEDTAVYYCAAEESSTSSEYDYWGQGTQVTVSS,low polyreactivity
21,QFQLVESGGGVVQAPGSLRLSSAASGSLFTVYAMGWYRQAPGKERELVAAISYGGGSTYYADSVKGRFTISRDTAKNTVYLQMNSLKQEDTAVYYCAADPYYSYGYYHAHGRDVGYWGQGTQVTVSS,low polyreactivity

row,Sequence,polyreactivity (PSR sort gate)
1,QVQLVESGGGLVQAGGSLRLSCAASGITFRYYAMGWDRQAPGKERELVAAINRGGDSTYYADSVKGRFTISRDNAKNTVYLQMNSLKPEDTAVYYCAASSYYRGTFYPSYYWGQGTQVTVSS,high polyreactivity
2,QVQLVESGGGLVQAGGSLRLSCAASGIIFRYYAMGWYRQAPGKERELVATITIGGRTNYADSVKGRFTISRDNAKNTVYLQMNCLKPEDTAVYYCASRVYKYGSVYHRYDYWGQGTQVTVSS,high polyreactivity
3,QVQLLDSGGGLVQAGGSLRLSCAASGFTFDDYDKGWYRPPPGKERELVAAISWSGGSTYYADSVKGRFTISRDNAKNTVYLQMNSLKPEDTAVYYCAAERSYGGFDYWGQGTQVTVSS,low polyreactivity
4,QVQLVESGGGLVQAGASLRLSCAASGSTFDQYVMGWYRQAPCKERELVAAISRRGGSTYYADSVKGRFTISRDNEKNTVYLQMNSLQPEDTAVYYCAAPSYYRYDYWGQGTQVTVSS,high polyreactivity
5,QVQLVESGGGLVQAGGSLRLSCAASGLTIWRYAMGWYIQAPGKERDLLAAISRSGIRTYYADSVKGRFTISRDTAKITVYLQMNSLKPEDTAVYYCAADSNAYITGRDYWGQVTQVTVSS,high polyreactivity
6,QVQLVESGGGLVQAGGSLRLSCAASGSIFRTNAMGWYRPAPGKERELVAAITGSGGSTYYADSVKGRFTISRDNAKNTVYLQMNSLKPEDTAVYYCATPVNRERHAEDYWGQGTQVTVSS,low polyreactivity
7,QVQLVESGGGLVQAGGSLRLSCAASGRTFYTNAMGWYRQAPGKERELVAAITGDGTSTYYADSVKGRFTISRDNAKNTVYLEMNSLKPEDTAVYYCNATLPDYWPYYYYQGGDDYWGQGTQVTVSS,low polyreactivity
8,QVQVVESGGGLVQAVGSLRLSCAASGSTLSDNAMGWYRQAPGKERELFAAISESGGSTYYADSVKGRFTISRDNAKNTVYLQMNSQKPEDTAVSYCNAVYLSGPFHVSHDYWGQGTQVTVSA,low polyreactivity
9,QVQLVESVGGLVQAGGSLRLSSAASGRTFRYYTMVWYTQAPGKEREFVAAISSTGGTYYADSVKGRFTISRDNAKNTVYLQMNSLKPEDTAVYYCAATFIQVVVNVQMYDYDYWGQGTQVTVSS,low polyreactivity
10,QVQIVESGGGLVQAGGSLRLSCAASGNTFPAYAMGWYRQAPGKERELVATISWSTGSTNYADSVKGRFTISRDNANNTVYLQMNSLKPEDTAVYYCNKRYPTDQMYYWGQGTLVTVSS,low polyreactivity
11,QVQLVESGGGLVQAGGSLRLSCAASGITFYRYAMGWYRQARGKERELVADITSSGGSTYYADSVKGRFTISRDNAKNTVYLQMNSLKPEDTAVYYFNAAYYFSRIVYPYDYWGQGTQVTVSS,high polyreactivity
12,QVQLVESGGGLVQAGGSLRLSCAASGRTFTHNTMGWYRQAPGKERELVAAISRSGASTYYADSVKGRFTISRDNAKNTVYLQMNRLKPEDTAVYYCNAYSRPHFGYVVGTKSRHGYWGQGTQVTVSS,high polyreactivity
13,QVQLVESGGLLVQAGGSLRLSCAASGRIFTHNATGWYRQAPGKERELVAAISYSGVSTYYADSVKGRFTISRDNAKNTVYLQMNSLKPEDTAVYYCARRYWYPDAFYRYDYWGQGTQVTVSS,low polyreactivity
14,QDQHVESGGGLVQAGGSLRLSCAATGNIFRYYTMGWYRQAPRKERELVAAISWNGGSTYYADSVKGRFTISRDNAKNTVYLQMNSLKPEDTAVYYCNAVQYYEFDYWGQGTQVTVSS,low polyreactivity
15,QVQLVESGGGLVQAGGGLRLSCAASGRIFSPYAMGWDRQSPGKEMELVAAIRRSGVDTYYADSVKGRFTISRDNAKNTVYLQINSLKPEDTAVYYCAADPYWFFPHYDSWGQGTQVTVSS,low polyreactivity
16,QVQLVESGGGLVQAGGSLRLSCAASGSIYYNAMGWYRQAPGKERELVAGITWSGGSTYYADSVKGRFTISRDNAKNTVYLQMNSLKPEDTAVYYCAADFVYLGTHYGAYDYWGQGTQVTVSS,low polyreactivity
17,QVQLVESGGGLVQAGGSLRLSCSASGSTFTYYAIGWYRTAPGEERELGAAISWRGTSTYYADSVKGRFTISRDNAKNSVYLQMNSLKTEETAVYSCAGRGLWPYDYWGQGTQVTVSS,low polyreactivity
18,QVQLVESGGGLVQAGGSLRLSCAASGRIIRPYAMGWYRQAPGKERDFVATIRFTTGRTYYADSVKGRFTISRDNAKNTVYLQMNSLKPDDTAVYYCAADFAFVNYAKISYTTHDYWGQGTQVTVSS,high polyreactivity
19,QVQLVESGGGLVQAGGSLRLSCAASGRISLSNAMGWYRQAPGKEREFVAAITKRSDRTYYADSVKGRFTISRDNAKNTVYLQMNSLKPEDRAVYYCAAKPLFGTRDDYWGQGTQVTVSS,low polyreactivity
20,QVQLVESGGGLVQAGGSLRLSCAASGSIFTLYDMGWYRQAPGKERELVAAITSGGSTDYADTVKGRFTISRDNAKNTVYLQMNSLKPEDTAVYYCNAESFTYWYRGASREYDYWGQGTQVTVSS,low polyreactivity

# Reference: the nanobody polyreactivity screen of Harvey et al. (2022)
